Test results reported in the supplement of paper PMC11316812.
± gives the standard deviation of the averaged measurements.

Key:
[1] = system: hTERT-HMEC; test: percentage of EdU-negative (G0-arrested) nuclei per well, 72 h; higher = more G0 arrest; conditions: reference: sequence is the full UniProt precursor, the tested protein was the secreted form or ectodomain
[2] = system: MCF7; test: as above; conditions: reference: sequence is the full UniProt precursor, the tested protein was the secreted form or ectodomain
[3] = protein concentration 0.023405 µM
[4] = protein concentration 0.23405 µM
[5] = protein concentration 0.0257143 µM
[6] = protein concentration 0.257143 µM
[7] = protein concentration 0.016015 µM
[8] = protein concentration 0.16015 µM
[9] = protein concentration 0.020665 µM
[10] = protein concentration 0.20665 µM
[11] = protein concentration 0.0357143 µM
[12] = protein concentration 0.357143 µM
[13] = protein concentration 0.0225 µM
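Further: secreted proteins added to cultured cells, EdU pulse at the end, nuclei found by Hoechst imaging, EdU status from nuclear versus surrounding ring intensity ratio, PBS as neutral control.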

MKTPWKVLLGLLGAAALVTIITVPVVLLNKGTDDATADSRKTYTLTDYLKNTYRLKLYSLRWISDHEYLYKQENNILVFNAEYGNSSVFLENSTFDEFGHSINDYSISPDGQFILLEYNYVKQWRHSYTASYDIYDLNKRQLITEERIPNNTQWVTWSPVGHKLAYVWNNDIYVKIEPNLPSYRITWTGKEDIIYNGITDWVYEEEVFSAYSALWWSPNGTFLAYAQFNDTEVPLIEYSFYSDESLQYPKTVRVPYPKAGAVNPTVKFFVVNTDSLSSVTNATSIQITAPASMLIGDHYLCDVTWATQERISLQWLRRIQNYSVMDICDYDESSGRWNCLVARQHIEMSTTGWVGRFRPSEPHFTLDGNSFYKIISNEEGYRHICYFQIDKKDCTFITKGTWEVIGIEALTSDYLYYISNEYKGMPGGRNLYKIQLSDYTKVTCLSCELNPERCQYYSVSFSKEAKYYQLRCSGPGLPLYTLHSSVNDKGLRVLEDNSALDKMLQNVQMPSKKLDFIILNETKFWYQMILPPHFDKSKKYPLLLDVYAGPCSQKADTVFRLNWATYLASTENIIVASFDGRGSGYQGDKIMHAINRRLGTFEVEDQIEAARQFSKMGFVDNKRIAIWGWSYGGYVTSMVLGSGSGVFKCGIAVAPVSRWEYYDSVYTERYMGLPTPEDNLDHYRNSTVMSRAENFKQVEYLLIHGTADDNVHFQQSAQISKALVDVGVDFQAMWYTDEDHGIASSTAHQHIYTHMSHFIKQCFSLP
percentage of EdU-negative ([1]; protein concentration 0.009 µM): 4.55 ± 0.2% | percentage of EdU-negative [1, 3]: 5.17 ± 1.7% | percentage of EdU-negative ([1]; protein concentration 0.09 µM): 6.07 ± 0.24% | percentage of EdU-negative [1, 4]: 6.28 ± 0.073% | percentage of EdU-negative ([2]; protein concentration 0.009 µM): 24.2 ± 0.48% | percentage of EdU-negative [2, 3]: 24.2 ± 0.77% | percentage of EdU-negative ([2]; protein concentration 0.09 µM): 26.5 ± 0.49% | percentage of EdU-negative [2, 4]: 29.2 ± 1.1%

MKVLLCDLLLLSLFSSVFSSCQRDCLTCQEKLHPALDSFDLEVCILECEEKVFPSPLWTPCTKVMARSSWQLSPAAPEHVAAALYQPRASEMQHLRRMPRVRSLFQEQEEPEPGMEEAGEMEQKQLQKRFGGFTGARKSARKLANQKRFSEFMRQYLVLSMQSSQRRRTLHQNGNV
percentage of EdU-negative [1, 5]: 4.77 ± 0.15% | percentage of EdU-negative [1, 6]: 5.6 ± 0.068% | percentage of EdU-negative [2, 5]: 24.9 ± 0.7% | percentage of EdU-negative [2, 6]: 27.5 ± 0.28%

MKVLLRLICFIALLISSLEADKCKEREEKIILVSSANEIDVRPCPLNPNEHKGTITWYKDDSKTPVSTEQASRIHQHKEKLWFVPAKVEDSGHYYCVVRNSSYCLRIKISAKFVENEPNLCYNAQAIFKQKLPVAGDGGLVCPYMEFFKNENNELPKLQWYKDCKPLLLDNIHFSGVKDRLIVMNVAEKHRGNYTCHASYTYLGKQYPITRVIEFITLEENKPTRPVIVSPANETMEVDLGSQIQLICNVTGQLSDIAYWKWNGSVIDEDDPVLGEDYYSVENPANKRRSTLITVLNISEIESRFYKHPFTCFAKNTHGIDAAYIQLIYPVTNFQKHMIGICVTLTVIIVCSVFIYKIFKIDIVLWYRDSCYDFLPIKASDGKTYDAYILYPKTVGEGSTSDCDIFVFKVLPEVLEKQCGYKLFIYGRDDYVGEDIVEVINENVKKSRRLIIILVRETSGFSWLGGSSEEQIAMYNALVQDGIKVVLLELEKIQDYEKMPESIKFIKQKHGAIRWSGDFTQGPQSAKTRFWKNVRYHMPVQRRSPSSKHQLLSPATKEKLQREAHVPLG
percentage of EdU-negative [1, 7]: 4.76 ± 0.26% | percentage of EdU-negative [1, 8]: 5.92 ± 0.43% | percentage of EdU-negative [2, 7]: 25.8 ± 1.6% | percentage of EdU-negative [2, 8]: 26.2 ± 0.51%

MKVSEAALSLLVLILIITSASRSQPKVPEWVNTPSTCCLKYYEKVLPRRLVVGYRKALNCHLPAIIFVTKRNREVCTNPNDDWVQEYIKDPNLPLLPTRNLSTVKIITAKNGQPQLLNSQ
percentage of EdU-negative [1, 9]: 5.16 ± 1.1% | percentage of EdU-negative [1, 10]: 5.51 ± 0.14% | percentage of EdU-negative [2, 9]: 22.9 ± 1.1% | percentage of EdU-negative [2, 10]: 25.9 ± 2.8%

MKVSVAALSCLMLVAVLGSQAQFTNDAETELMMSKLPLENPVVLNSFHFAADCCTSYISQSIPCSLMKSYFETSSECSKPGVIFLTKKGRQVCAKPSGPGVQDCMKKLKPYSI
percentage of EdU-negative [1, 11]: 4.77 ± 0.69% | percentage of EdU-negative [1, 12]: 4.52 ± 1.2% | percentage of EdU-negative [2, 11]: 24.9 ± 0.52% | percentage of EdU-negative [2, 12]: 25.2 ± 0.81%

MKVSVAALSCLMLVTALGSQARVTKDAETEFMMSKLPLENPVLLDRFHATSADCCISYTPRSIPCSLLESYFETNSECSKPGVIFLTKKGRRFCANPSDKQVQVCMRMLKLDTRIKTRKN
percentage of EdU-negative [1, 13]: 4.81 ± 0.43% | percentage of EdU-negative ([1]; protein concentration 0.225 µM): 5.12 ± 0.82% | percentage of EdU-negative [2, 13]: 22.9 ± 1.3% | percentage of EdU-negative ([2]; protein concentration 0.225 µM): 24.7 ± 1.1%

MKVTGIFLLSALALLSLSGNTGADSLGREAKCYNELNGCTKIYDPVCGTDGNTYPNECVLCFENRKRQTSILIQKSGPC
percentage of EdU-negative [1, 13]: 5.21 ± 1.1% | percentage of EdU-negative ([1]; protein concentration 0.225 µM): 4.61 ± 0.16% | percentage of EdU-negative [2, 13]: 24 ± 0.32% | percentage of EdU-negative ([2]; protein concentration 0.225 µM): 25.6 ± 0.77%
